In data set [1] the test system is scrt-1 (C55C2.1) (Caenorhabditis elegans).
Data set [2] deals with T1, nhr-168 (C50B6.8) (Caenorhabditis elegans) (UniProt P91983).
T1 sequence: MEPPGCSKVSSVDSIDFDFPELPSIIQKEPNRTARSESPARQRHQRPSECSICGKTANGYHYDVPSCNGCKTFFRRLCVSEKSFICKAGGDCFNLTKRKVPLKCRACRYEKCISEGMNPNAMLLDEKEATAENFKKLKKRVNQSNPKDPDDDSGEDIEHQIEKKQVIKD

Data set [3] deals with T2, mab-23 (C32C4.5) (Caenorhabditis elegans) (UniProt G5ECK3).
T2 sequence: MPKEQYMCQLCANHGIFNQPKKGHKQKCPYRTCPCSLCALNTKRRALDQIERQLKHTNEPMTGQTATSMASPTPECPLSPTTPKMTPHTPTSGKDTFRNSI

In data set [4] the target is T3, dmd-6 (F13G11.1) (Caenorhabditis elegans) (UniProt O62159).
T3 sequence: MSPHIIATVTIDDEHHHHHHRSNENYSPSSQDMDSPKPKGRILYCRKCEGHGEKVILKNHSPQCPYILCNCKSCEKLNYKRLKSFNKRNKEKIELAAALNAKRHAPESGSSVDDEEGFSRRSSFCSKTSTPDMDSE

For data set [5], the target named is T4, K02D7.2 (K02D7.2) (Caenorhabditis elegans) (UniProt O45103).
T4 sequence: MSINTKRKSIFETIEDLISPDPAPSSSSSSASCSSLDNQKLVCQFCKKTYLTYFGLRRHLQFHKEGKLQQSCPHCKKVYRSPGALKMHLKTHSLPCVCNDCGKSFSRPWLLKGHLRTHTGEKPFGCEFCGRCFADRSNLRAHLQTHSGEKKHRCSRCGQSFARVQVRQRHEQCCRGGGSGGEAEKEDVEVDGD

Data set [6] has as its target T5, Y61A9LA.9 (Y61A9LA.9) (Caenorhabditis elegans) (UniProt Q9N312).
T5 sequence: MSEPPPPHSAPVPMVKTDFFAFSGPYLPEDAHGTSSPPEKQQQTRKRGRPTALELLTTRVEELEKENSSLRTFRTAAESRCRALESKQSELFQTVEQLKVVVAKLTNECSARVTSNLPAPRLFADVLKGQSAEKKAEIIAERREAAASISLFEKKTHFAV

Data set [7] concerns the target T6, F55C5.11 (F55C5.11) (Caenorhabditis elegans) (UniProt Q1ZXU0).
T6 sequence: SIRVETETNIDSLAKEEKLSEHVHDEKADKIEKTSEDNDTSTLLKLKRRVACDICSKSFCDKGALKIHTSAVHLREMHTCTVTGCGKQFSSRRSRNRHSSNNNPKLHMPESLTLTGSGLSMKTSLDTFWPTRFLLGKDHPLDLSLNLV

The target in data set [8] is T7, tbx-33 (Y66A7A.8) (Caenorhabditis elegans) (UniProt O45291).
T7 sequence: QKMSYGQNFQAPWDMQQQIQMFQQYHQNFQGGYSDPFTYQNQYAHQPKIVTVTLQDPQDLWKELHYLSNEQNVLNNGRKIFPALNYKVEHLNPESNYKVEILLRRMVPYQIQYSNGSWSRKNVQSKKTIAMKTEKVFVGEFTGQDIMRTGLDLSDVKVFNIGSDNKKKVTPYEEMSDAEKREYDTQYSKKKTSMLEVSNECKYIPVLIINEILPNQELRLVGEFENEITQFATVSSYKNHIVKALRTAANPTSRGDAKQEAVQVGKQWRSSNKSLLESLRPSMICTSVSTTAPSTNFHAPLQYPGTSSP

The source of these data is PMC4434323.

Chain of scrt-1 (C55C2.1) (Caenorhabditis elegans) (chain, as listed by the source): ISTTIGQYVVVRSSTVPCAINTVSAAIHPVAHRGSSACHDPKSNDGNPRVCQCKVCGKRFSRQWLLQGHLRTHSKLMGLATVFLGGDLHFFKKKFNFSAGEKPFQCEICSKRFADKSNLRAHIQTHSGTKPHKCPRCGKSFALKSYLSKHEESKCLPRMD

In data set [1], “AACCACTA (double strand) [8-mer AACCACTA]” displayed a binding signal (PBM E-score (-0.5 to 0.5)) of 0.46.

For “ATGTTCTC (double strand) [8-mer ATGTTCTC]”, the binding signal (PBM E-score (-0.5 to 0.5)) in data set [2] worked out at 0.465. “CAACCACC (double strand) [8-mer CAACCACC]” showed a binding signal (PBM E-score (-0.5 to 0.5)) in data set [1] of 0.483.

In data set [2], “GTACAAAA (double strand) [8-mer GTACAAAA]” came in with a binding signal (PBM E-score (-0.5 to 0.5)) of 0.46. Turning to “AAAAATTT (double strand) [8-mer AAAAATTT]”, the values for the binding signal (PBM E-score (-0.5 to 0.5)) in data set [3] and in data set [4] were 0.478 and 0.481, respectively.

Consider “ACAACCAC (double strand) [8-mer ACAACCAC]”, for which the binding signal (PBM E-score (-0.5 to 0.5)) in data set [1] was 0.472. In turn, “AATGTTCT (double strand) [8-mer AATGTTCT]” displayed a binding signal (PBM E-score (-0.5 to 0.5)) in data set [2] of 0.482. Turning to “AAAATTTC (double strand) [8-mer AAAATTTC]”, in data set [3], the binding signal (PBM E-score (-0.5 to 0.5)) is 0.47.

In turn, “ACAGGTGC (double strand) [8-mer ACAGGTGC]” yielded a binding signal (PBM E-score (-0.5 to 0.5)) in data set [5] of 0.477. Turning to “AAAATATT (double strand) [8-mer AAAATATT]”, the figures for the binding signal (PBM E-score (-0.5 to 0.5)) in data set [3], in data set [6] and in data set [4] were 0.469, 0.451 and 0.485, respectively. The sequence “CACCTGTA (double strand) [8-mer CACCTGTA]” registered a binding signal (PBM E-score (-0.5 to 0.5)) in data set [5] of 0.457. In the case of “AAATATTA (double strand) [8-mer AAATATTA]”, the binding signal (PBM E-score (-0.5 to 0.5)) in data set [3] was 0.459; in data set [6], 0.456; in data set [4], 0.481. “AGTGGTTG (double strand) [8-mer AGTGGTTG]”: the binding signal (PBM E-score (-0.5 to 0.5)) in data set [1] came to 0.492. In data set [3], “AATTTTTA (double strand) [8-mer AATTTTTA]” returned a binding signal (PBM E-score (-0.5 to 0.5)) of 0.453.

For the sequence “AACCACTT (double strand) [8-mer AACCACTT]”, in data set [1], the binding signal (PBM E-score (-0.5 to 0.5)) is 0.476. In turn, “CACCTGTC (double strand) [8-mer CACCTGTC]” gave a binding signal (PBM E-score (-0.5 to 0.5)) in data set [5] of 0.456.

On to “ACACCTGT (double strand) [8-mer ACACCTGT]”, for which the binding signal (PBM E-score (-0.5 to 0.5)) in data set [5] worked out at 0.468. In the case of “ATTGTCAC (double strand) [8-mer ATTGTCAC]”, the binding signal (PBM E-score (-0.5 to 0.5)) in data set [7] is 0.486; in data set [8] it was 0.47. For “AAATTATT (double strand) [8-mer AAATTATT]”, the binding signal (PBM E-score (-0.5 to 0.5)) in data set [3] worked out at 0.454. As for “AACCACCT (double strand) [8-mer AACCACCT]”, the binding signal (PBM E-score (-0.5 to 0.5)) in data set [1] stood at 0.464. Turning to “AATGATCT (double strand) [8-mer AATGATCT]”, the binding signal (PBM E-score (-0.5 to 0.5)) in data set [2] amounted to 0.45. Take “AAAATGTT (double strand) [8-mer AAAATGTT]”: the binding signal (PBM E-score (-0.5 to 0.5)) is 0.458 in data set [2] and 0.475 in data set [4].

For “ACAGGTGG (double strand) [8-mer ACAGGTGG]”, the binding signal (PBM E-score (-0.5 to 0.5)) in data set [5] is 0.467. With “ATCTCCAC (double strand) [8-mer ATCTCCAC]”, the binding signal (PBM E-score (-0.5 to 0.5)) in data set [8] came to 0.485.

As for “AGCAGGTG (double strand) [8-mer AGCAGGTG]”, the binding signal (PBM E-score (-0.5 to 0.5)) in data set [5] was determined as 0.457. As to “AAAATTTT (double strand) [8-mer AAAATTTT]”, the values for the binding signal (PBM E-score (-0.5 to 0.5)) in data set [3] and in data set [4] were 0.469 and 0.481, respectively. For the sequence “AACCACTG (double strand) [8-mer AACCACTG]”, the binding signal (PBM E-score (-0.5 to 0.5)) in data set [1] amounted to 0.475. “AAATGTTC (double strand) [8-mer AAATGTTC]”: the binding signal (PBM E-score (-0.5 to 0.5)) in data set [2] was found to be 0.487; in data set [4], 0.469.

Consider “AAACCACT (double strand) [8-mer AAACCACT]”, for which the binding signal (PBM E-score (-0.5 to 0.5)) in data set [1] turned out to be 0.453.
